Consider 38 variants from the Human Domainome abundance scans (Beltran et al. 2025).

B1: Far upstream element-binding protein 2, residues 142 to 214; numbered along this chain, Q92945 (parent)
chain: RTSMTEEYRVPDGMVGLIIGRGGEQINKIQQDSGCKVQISPDSGGLPERSVSLTGAPESVQKAKMMLDDIVSR

± gives the uncertainty stated by the source.

The series covers variants of B1. In words: abundance fitness (aPCA) (normalised: wild type 0, dead -1); higher = more abundant; growth selection in yeast, the domain comes from the species named. As to conditions: Homo sapiens.
As to RTSMTEEYRVPDGMVGLIIGRGGEQINKIQQDSGCKVQISPDSGGLPENSVSLTGAPESVQKAKMMLDDIVSR [R49N], the abundance fitness is -0.104 ± 0.13.

On to RTSMTEEYRVPDGMVGLIIGRGGEQINKIQQDSGCKVQISPDSGGLPEMSVSLTGAPESVQKAKMMLDDIVSR [R49M], for which the abundance fitness was -0.127 ± 0.062.

As to RTSMTEEYRVPDGMVGLIIGRGGEQINKIQQDSGCKVQISPDSGGLPEWSVSLTGAPESVQKAKMMLDDIVSR [R49W], the abundance fitness is -0.202 ± 0.055.

For RTSMTEEYRVPDGMVGLIIGRGGEQINKIQQDSGCKVQISPDSGGLPEPSVSLTGAPESVQKAKMMLDDIVSR [R49P], the abundance fitness is -0.067 ± 0.059.

Take RTSMTEEYRVPDGMVGLIIGRGGEQINKIQQDSGCKVQISPDSGGLPEESVSLTGAPESVQKAKMMLDDIVSR [R49E]: the abundance fitness was -0.267 ± 0.056.

Take RTSMTEEYRVPDGMVGLIIGRGGEQINKIQQDSGCKVQISPDSGGLPEHSVSLTGAPESVQKAKMMLDDIVSR [R49H]: the abundance fitness amounted to 0.025 ± 0.089.

With RTSMTEEYRVPDGMVGLIIGRGGEQINKIQQDSGCKVQISPDSGGLPEQSVSLTGAPESVQKAKMMLDDIVSR [R49Q], the abundance fitness is -0.08 ± 0.057.

On to RTSMTEEYRVPDGMVGLIIGRGGEQINKIQQDSGCKVQISPDSGGLPEASVSLTGAPESVQKAKMMLDDIVSR [R49A], for which the abundance fitness is -0.021 ± 0.057.

As to RTSMTEEYRVPDGMVGLIIGRGGEQINKIQQDSGCKVQISPDSGGLPEKSVSLTGAPESVQKAKMMLDDIVSR [R49K], the abundance fitness was -0.092 ± 0.063.

As for RTSMTEEYRVPDGMVGLIIGRGGEQINKIQQDSGCKVQISPDSGGLPEDSVSLTGAPESVQKAKMMLDDIVSR [R49D], the abundance fitness is -0.386 ± 0.088.

As to RTSMTEEYRVPDGMVGLIIGRGGEQINKIQQDSGCKVQISPDSGGLPERSVMLTGAPESVQKAKMMLDDIVSR [S52M], the abundance fitness amounted to 0.047 ± 0.06.

RTSMTEEYRVPDGMVGLIIGRGGEQINKIQQDSGCKVQISPDSGGLPERSVGLTGAPESVQKAKMMLDDIVSR [S52G]: the abundance fitness was -0.249 ± 0.04.

For the variant RTSMTEEYRVPDGMVGLIIGRGGEQINKIQQDSGCKVQISPDSGGLPERSVFLTGAPESVQKAKMMLDDIVSR [S52F], the abundance fitness turned out to be 0.007 ± 0.074.

Regarding RTSMTEEYRVPDGMVGLIIGRGGEQINKIQQDSGCKVQISPDSGGLPERSVLLTGAPESVQKAKMMLDDIVSR [S52L], the abundance fitness is 0.059 ± 0.041.

Take RTSMTEEYRVPDGMVGLIIGRGGEQINKIQQDSGCKVQISPDSGGLPERSVILTGAPESVQKAKMMLDDIVSR [S52I]: the abundance fitness is 0 ± 0.083.

As to RTSMTEEYRVPDGMVGLIIGRGGEQINKIQQDSGCKVQISPDSGGLPERSVALTGAPESVQKAKMMLDDIVSR [S52A], the abundance fitness was -0.094 ± 0.044.

For the variant RTSMTEEYRVPDGMVGLIIGRGGEQINKIQQDSGCKVQISPDSGGLPERSVDLTGAPESVQKAKMMLDDIVSR [S52D], the abundance fitness was -0.312 ± 0.067.

For RTSMTEEYRVPDGMVGLIIGRGGEQINKIQQDSGCKVQISPDSGGLPERSVHLTGAPESVQKAKMMLDDIVSR [S52H], the abundance fitness is 0.043 ± 0.075.

Take RTSMTEEYRVPDGMVGLIIGRGGEQINKIQQDSGCKVQISPDSGGLPERSVCLTGAPESVQKAKMMLDDIVSR [S52C]: the abundance fitness stood at 0.027 ± 0.058.

In the case of RTSMTEEYRVPDGMVGLIIGRGGEQINKIQQDSGCKVQISPDSGGLPERSVELTGAPESVQKAKMMLDDIVSR [S52E], the abundance fitness turned out to be 0 ± 0.048.

In the case of RTSMTEEYRVPDGMVGLIIGRGGEQINKIQQDSGCKVQISPDSGGLPERKVSLTGAPESVQKAKMMLDDIVSR [S50K], the abundance fitness was found to be 0.044 ± 0.069.

For the variant RTSMTEEYRVPDGMVGLIIGRGGEQINKIQQDSGCKVQISPDSGGLPERRVSLTGAPESVQKAKMMLDDIVSR [S50R], the abundance fitness was 0.018 ± 0.042.

As to RTSMTEEYRVPDGMVGLIIGRGGEQINKIQQDSGCKVQISPDSGGLPEREVSLTGAPESVQKAKMMLDDIVSR [S50E], the abundance fitness is -0.193 ± 0.059.

On to RTSMTEEYRVPDGMVGLIIGRGGEQINKIQQDSGCKVQISPDSGGLPERQVSLTGAPESVQKAKMMLDDIVSR [S50Q], for which the abundance fitness is -0.139 ± 0.057.

As for RTSMTEEYRVPDGMVGLIIGRGGEQINKIQQDSGCKVQISPDSGGLPERFVSLTGAPESVQKAKMMLDDIVSR [S50F], the abundance fitness is -0.218 ± 0.092.

Turning to RTSMTEEYRVPDGMVGLIIGRGGEQINKIQQDSGCKVQISPDSGGLPERVVSLTGAPESVQKAKMMLDDIVSR [S50V], the abundance fitness is -0.002 ± 0.046.

As to RTSMTEEYRVPDGMVGLIIGRGGEQINKIQQDSGCKVQISPDSGGLPERMVSLTGAPESVQKAKMMLDDIVSR [S50M], the abundance fitness is -0.125 ± 0.064.

In the case of RTSMTEEYRVPDGMVGLIIGRGGEQINKIQQDSGCKVQISPDSGGLPERIVSLTGAPESVQKAKMMLDDIVSR [S50I], the abundance fitness came out at 0.126 ± 0.11.

Regarding RTSMTEEYRVPDGMVGLIIGRGGEQINKIQQDSGCKVQISPDSGGLPERYVSLTGAPESVQKAKMMLDDIVSR [S50Y], the abundance fitness was -0.137 ± 0.085.

With RTSMTEEYRVPDGMVGLIIGRGGEQINKIQQDSGCKVQISPDSGGLPERLVSLTGAPESVQKAKMMLDDIVSR [S50L], the abundance fitness is -0.067 ± 0.045.

As to RTSMTEEYRVPDGMVGLIIGRGGEQINKIQQDSGCKVQISPDSGGLPERNVSLTGAPESVQKAKMMLDDIVSR [S50N], the abundance fitness was -0.085 ± 0.11.

In the case of RTSMTEEYRVPDGMVGLIIGRGGEQINKIQQDSGCKVQISPDSGGLPERDVSLTGAPESVQKAKMMLDDIVSR [S50D], the abundance fitness is -0.289 ± 0.074.

RTSMTEEYRVPDGMVGLIIGRGGEQINKIQQDSGCKVQISPDSGGLPERCVSLTGAPESVQKAKMMLDDIVSR [S50C]: the abundance fitness is 0.043 ± 0.071.

In the case of RTSMTEEYRVPDGMVGLIIGRGGEQINKIQQDSGCKVQISPDSGGLPERAVSLTGAPESVQKAKMMLDDIVSR [S50A], the abundance fitness is -0.04 ± 0.047.

On to RTSMTEEYRVPDGMVGLIIGRGGEQINKIQQDSGCKVQISPDSGGLPERPVSLTGAPESVQKAKMMLDDIVSR [S50P], for which the abundance fitness is -0.159 ± 0.055.

With RTSMTEEYRVPDGMVGLIIGRGGEQINKIQQDSGCKVQISPDSGGLPERWVSLTGAPESVQKAKMMLDDIVSR [S50W], the abundance fitness is -0.118 ± 0.061.

For the variant RTSMTEEYRVPDGMVGLIIGRGGEQINKIQQDSGCKVQISPDSGGLPERTVSLTGAPESVQKAKMMLDDIVSR [S50T], the abundance fitness amounted to 0.008 ± 0.055.

Take RTSMTEEYRVPDGMVGLIIGRGGEQINKIQQDSGCKVQISPDSGGLPERGVSLTGAPESVQKAKMMLDDIVSR [S50G]: the abundance fitness was -0.071 ± 0.043.
